From patent US20050221395A1, “Methods and products based on oligomerization of stress proteins” (priority 2002, published 2005) come the findings set out here.

Values joined by “and” are separate entries in the source; they are usually repeats but may differ in a detail not shown here. Equal values may be shown once.

The nature of data set [1]: ATPase activity, luciferin-luciferase luminescence assay (geldanamycin inhibitable). The data set is classed as biochemical. As to conditions: for ATPase activity of SEC fractions (rate of ATP hydrolysis per mg protein): SEC fractions of human tumor derived gp96-peptide complex (FIG. 6); for ATPase: gp96 loaded with AH1 19mer peptide. On the procedure: Finally, ATPase activity of each fraction was determined based on the loss of ATP using a luciferin-luciferase luminescence assay. Values are reported as the rate of ATP hydrolysis per mg protein. […] The ATPase activity was in the dimer containing fractions with minimal activity in the high molecular weight aggregate and monomer fractions.
ATPase activity was measured as the loss of ATP following 4 hr. of incubation at 37° C. using a luciferin-luciferase luminescence assay. Values are reported as the rate of ATP hydrolysis per mg protein and represent only the activity that is geldanamycin inhibitable to ensure specificity for the hsp90 family of heat shock proteins.
The assay is performed as follows. Gp96 samples (2 μL, 500 μg/mL in PBS) were mixed with 2 μL of a solution comprising a 10 fold molar excess ATP in PBS containing 12.5 mM MgCl2, and either 20% (v/v) DMSO or DMSO containing […] geldanamycin. This mixture was incubated at 37° C. for 4 hr. Samples were then diluted to 100 μL with PBS and the ATP contained in 50 μL of each sample was quantified using the ROCHE CLSII bioluminescence ATP assay kit. Bioluminescence was measured using a Molecular Devices Lmax luminometer. The difference in ATP concentration between uninhibited and Geldanamycin-inhibited measurements reflects the amount of ATP hydrolysis specific to gp96. Rates were calculated from this differential and expressed as nmoles of ATP hydrolyzed per mg protein per hr.

For data set [2], the system named is AH1 peptide-specific CTLs co-cultured with RAW264.7 cells. Kind of data set: hybrid antigen re-presentation assay (IFN-γ by ELISA). The class given is cell-based, mouse. To be noted: for IFN-γ response (T-cell stimulation): 10 μg/mL or diluted with unloaded gp96 at 1:3, 1:10 or 1:30, APCs and CTLs (FIG. 7); for ability to stimulate T-cells: heated at 60° C. for 10 min. How it is done: For this purpose, a hybrid antigen re-presentation bioassay system was developed in which the mouse antigen, AH1 peptide, for which a mouse CD8 T-cell line is available, was exchanged in vitro onto human tumor derived hsp. The gp96-peptide complex was then tested for its ability to facilitate antigen re-presentation and antigen-specific T-cell stimulation.
The antigen presenting cell line, RAW264.7 (ATCC #TIB-71), is an Abelson murine leukemia virus transformed macrophage cell line, which originated from the BALB/c strain (H-2^d). The CTL line specific for the murine CT26 tumor derived AH1 epitope was obtained from P. Srivastava (U. of Conn. Medical Center). They were re-stimulated on a weekly basis with the AH1 peptide plus irradiated BALB/c splenocytes. The 9 amino acid AH1 peptide epitope ([…]) and the 19mer peptide ([…]) which contained this epitope were obtained from Sigma Genosys 1442 lake Front Circle, The Woodlands, Tex. 77380-3600.
AH1 19mer peptide was added to purified gp96 preparations at a ratio of 50:1 peptide to protein and the mixture incubated at 37° C. for 30 mm. Unbound peptide was removed by 4 cycles of spin dialysis with 10 volumes of PBS using 30K MWCO Centricon spin filter units (Millipore). Total protein was determined by the Bradford assay.
The in vitro antigen re-presentation assay has been described. Briefly, 10^4 AH1 peptide-specific CTLs (day 8 post stimulation) were co-cultured with 10^4 RAW264.7 cells in 96-well flat bottom plates. In vitro loaded gp96 samples at 10 μg/mL were analyzed neat or diluted with unloaded gp96 at the indicated amounts in order to maintain constant protein concentration. Protein samples and controls were added to the wells and incubated at 37° C. for 18 hr. Following centrifugation, the supernatants were harvested for analysis of IFN-γ levels by ELISA (R&D Systems). Reported values represent the average of six replicates. AH1 9mer peptide served as a positive control and unloaded gp96, AH1 19mer peptide and media alone as negative controls. Additional negative controls were provided by applying identical sets of samples to plates that contained either CTLs or APCs only.
The hybrid re-presentation assay measures the ability of human gp96, loaded with AH1 19mer peptide, to deliver antigen to mouse APCs to facilitate re-presentation leading to simulation of antigen specific T-cells. […] The second and third panels are controls for CTLs and APCs alone. Each data set contains media alone, unloaded gp96 and AH1 19mer as negative controls and AH1 9mer peptide, which can exchange directly onto surface MHC I molecules, as the positive control. Gp96/AH1 19mer complex was applied at 10 μg/mL or diluted with unloaded gp96 at 1:3, 1:10 or 1:30.

Data set [3] is described as follows: % dimer by size exclusion chromatography (SEC). The class given is physicochemical. As to conditions: for % Dimer: Superose 6 column, gp96 loaded with AH1 19mer peptide; for dimeric form by SEC: mild heat treatment. On the procedure: Gp96-peptide complex was isolated from murine CT-26 tumors. Separate aliquots of each preparation were either maintained at 4° C. (untreated) or subjected to mild heat treatment to denature the complex.
HPLC size exclusion chromatography is currently being optimized and has been run under a few different formats. The column was either a TSK 3000SWXL (Toso Haus) or a Superose 6 (Amersham Pharmacia) equilibrated in 10 mM phosphate buffer, pH 7.1, with 300 mM NaCl. All experiments were run at room temperature on a Waters Alliance or HP 1100 HPLC systems at a flow rate of 0.5 mL/min. The following results for human tumor derived gp96 (reported in Table 3, below) were all analyzed on the Superose 6 column. % dimer values represent the area percent of the dimer peak relative to total peak area.
(In general: In gel filtration, larger molecules generally elute earlier.)

Data set [4] can be described thus: NECA ligand binding. How it is done: Dimer content also correlates with the ability of gp96 to bind NECA. Using the gp96-peptide complex isolated from CT-26 tumors, aliquots of each preparation were also analyzed for NECA ligand binding.
For data set [5], the system named is Tumor specific T-cell. Nature of the data set: antigen re-presentation and T-cell activation measured by IFN-γ release. The class given is cell-based, murine. On the procedure: Re-presentation of antigenic peptides by hsps is another biological activity of significance. […] Immune response mediated by RAW264.7 APCs and CTLs specific to the peptide of the gp96 complex was measured by IFN-γ levels secreted by the CTLs. IFN-γ is a cytokine that is known in the art to be an indicator of general immune status; it also plays a major role in tumor recognition and rejection. […] A re-presentation assay is described in section 8, by way of example and not limitation.
The same samples were then analyzed for antigen re-presentation and T-cell activation as measured by IFN-γ expression.

For “Fractions 8-10: SEC fractions of human ovarian tumor derived gp96-peptide complex representing the dimer”, the “ATPase activity of SEC fractions (rate of ATP hydrolysis per mg protein)” value in data set [1] is recorded as “highest”.
For the molecule “human endometrial: gp96 purified from human endometrial tumor, loaded in vitro with AH1 19mer peptide (RVTYHSPSYVYHQFERRAK)”, in data set [2], the “IFN-γ response (T-cell stimulation)” value is reported as “dose dependent IFN-γ response”. Besides, the “ability to stimulate T-cells” value in data set [2] is “abolished”. The ATPase is 0 nmol/mg/h in data set [1] (heated at 60° C. for 10 min); 8.5 ± 0.3 nmol/mg/h and 9.4 ± 0.5 nmol/mg/h in data set [1] (untreated). Further, the “% Dimer” value was 0% in data set [3] (heated at 60° C. for 10 min); 86% and 83% in data set [3] (untreated).
For “fractions 11-15: SEC fractions of human ovarian tumor derived gp96-peptide complex: monomeric species, degradation products and lower molecular weight species”, in data set [1], the “ATPase activity of SEC fractions (rate of ATP hydrolysis per mg protein)” value is given as “significantly less”.
As to “unloaded gp96: human tumor derived gp96 not loaded with AH1 19mer peptide; negative control and diluent”, the “IFN-γ response (T-cell stimulation)” value in data set [2] is “no stimulation”.
Consider “human gp96-peptide complex: human gp96-peptide complex used in accelerated stability (mild heat) study”, for which the ATPase activity entry in data set [1] (mild heat treatment) was “abolished”. The “dimeric form by SEC” value in data set [3] is “converted dimeric protein to high molecular weight aggregates”.
As for “human renal: gp96 purified from human renal cell carcinoma, loaded in vitro with AH1 19mer peptide”, in data set [2], the “IFN-γ response (T-cell stimulation)” value was “specific and dose dependent stimulation of T-cells”. Further, the “ability to stimulate T-cells” value in data set [2] is “abrogated”. The ATPase in data set [1] (heated at 60° C. for 10 min) is 0 nmol/mg/h; in data set [1] (untreated), 10.3 ± 0.1 nmol/mg/h. Besides, the “% Dimer” value in data set [3] (heated at 60° C. for 10 min) was 0%; in data set [3] (untreated) it was 84%.
In the case of “recombinant gp96: samples of recombinant gp96 incubated at various temperatures for 10 minutes (FIG. 8)”, the ATPase activity result in data set [1] (incubated at the indicated temperatures for 10 minutes (FIG. 8)) is listed as “loss of ATPase activity”.
Consider “fractions 2-5: SEC fractions of human ovarian tumor derived gp96-peptide complex containing mostly higher molecular weight aggregates”, for which the “ATPase activity of SEC fractions (rate of ATP hydrolysis per mg protein)” value in data set [1] is listed as “significantly less”.

B1: gp96-peptide complex isolated from CT-26 tumors: Gp96-peptide complex isolated from murine CT-26 tumors; aliquots kept at 4° C. or heat treated (protein, UniProt P08113 22-802, looked up)
Endoplasmin: DDEVDVDGTVEEDLGKSREGSRTDDEVVQREEEAIQLDGLNASQIRELREKSEKFAFQAEVNRMMKLIINSLYKNKEIFLRELISNASDALDKIRLISLTDENALAGNEELTVKIKCDKEKNLLHVTDTGVGMTREELVKNLGTIAKSGTSEFLNKMTEAQEDGQSTSELIGQFGVGFYSAFLVADKVIVTSKHNNDTQHIWESDSNEFSVIADPRGNTLGRGTTITLVLKEEASDYLELDTIKNLVRKYSQFINFPIYVWSSKTETVEEPLEEDEAAKEEKEESDDEAAVEEEEEEKKPKTKKVEKTVWDWELMNDIKPIWQRPSKEVEEDEYKAFYKSFSKESDDPMAYIHFTAEGEVTFKSILFVPTSAPRGLFDEYGSKKSDYIKLYVRRVFITDDFHDMMPKYLNFVKGVVDSDDLPLNVSRETLQQHKLLKVIRKKLVRKTLDMIKKIADEKYNDTFWKEFGTNIKLGVIEDHSNRTRLAKLLRFQSSHHSTDITSLDQYVERMKEKQDKIYFMAGSSRKEAESSPFVERLLKKGYEVIYLTEPVDEYCIQALPEFDGKRFQNVAKEGVKFDESEKTKESREATEKEFEPLLNWMKDKALKDKIEKAVVSQRLTESPCALVASQYGWSGNMERIMKAQAYQTGKDISTNYYASQKKTFEINPRHPLIRDMLRRIKEDEDDKTVMDLAVVLFETATLRSGYLLPDTKAYGDRIERMLRLSLNIDPEAQVEEEPEEEPEDTSEDAEDSEQDEGEEMDAGTEEEEEETEKESTEKDEL
modifications: CT-26 tumor derived, complexed with peptides
notes: Gp96-peptide complex isolated from murine CT-26 tumors; aliquots kept at 4° C. or heat treated
Regarding B1, the “Specific NECA activity” value in data set [4] (4° C. (untreated)) is 1.68 μg NECA bound gp96/μg gp96 and 1.96 μg NECA bound gp96/μg gp96 and 3.27 μg NECA bound gp96/μg gp96; in data set [4] (49° C. at 15 min) it was 1.97 μg NECA bound gp96/μg gp96; in data set [4] (49° C. at 25 min), 1.80 μg NECA bound gp96/μg gp96; in data set [4] (49.5° C. at 30 min), 0.12 μg NECA bound gp96/μg gp96; in data set [4] (60° C. at 30 min), 0.04 μg NECA bound gp96/μg gp96 and 0.07 μg NECA bound gp96/μg gp96; in data set [4] (60° C. at 60 min), 0.08 μg NECA bound gp96/μg gp96. Further, in data set [4] (60° C. at 120 min), the “Specific NECA activity” value is given as 0.10 μg NECA bound gp96/μg gp96. Also, the “Tumor specific T-cell activation (IFN-γ release)” value in data set [5] (49° C. at 15 min) was 0 pg/mL; in data set [5] (49° C. at 25 min), 0 pg/mL; in data set [5] (49.5° C. at 30 min) it was 3150 pg/mL; in data set [5] (60° C. at 60 min), 9350 pg/mL; in data set [5] (60° C. at 120 min) it was 8100 pg/mL. In addition, the “% Dimer by SEC” value in data set [3] (4° C. (untreated)) is 84.44% and 87% and 75.8%; in data set [3] (49° C. at 15 min), 74%; in data set [3] (49° C. at 25 min) it was 54%; in data set [3] (49.5° C. at 30 min), 0%; in data set [3] (60° C. at 30 min) it was 0%; in data set [3] (60° C. at 60 min), 0%. Moreover, the “% Dimer by SEC” value in data set [3] (60° C. at 120 min) came to 0%. The “dimeric form by SEC” value in data set [3] is given as “rapidly converts to higher molecular weight aggregates”.
